{"source": "patent US20100124555A1", "about": "“Compositions and Methods for Treating Pancreatic Tumors” (UNIVERSITE DE LA MEDITERRANEE, priority 2007, published 2010)", "molecules": {"B1": {"name": "16D10: IgM monoclonal antibody recognizing FAPP/BSDL; producing cells deposited with the CNCM under the number I-3188 (antibody, listed as Mus musculus, V domains shown)", "VH": "QVQLQQSDAELVKPGASVKISCKASGYTFTDHAIHWVKQKPEQGLEWIGYISPGNDVIKFNEKFKGKATLTADKSSSTAYMQLNSLTSEDSAVYFCKRSEGGVFDYWGQGTTLTVS", "VL": "NIMMTQSPSSLAVSAGEKVTMSCKSSQSVLYSSNQKNFLAWYQQKPGQSPKLLIYWASTRESGVPDRFTGSGSGTDFTLTISSVQAEDLAVYYCHQYLSSYTFGGGTKLEIK"}}, "key": {"SOJ-6 cells": {"system": "SOJ-6 cells", "assay": "MTT cell growth and proliferation assay, SOJ-6", "type": "cell-based, human", "conditions": "SOJ-6, increasing concentrations of antibody, 24 h", "procedure": "Cell proliferation was determined using MTT assay as previously described (Mosmann et al., 1983 J Immunol Methods, 65(1-2):55-63). Briefly, cells were seeded at subconfluence in appropriate complete media containing 10% FCS in 96-well culture plates. Media were replaced for 24 h by fresh media with 10% inactivated FCS, including increasing concentrations of antibodies directed against FAPP (pAbL64, mAbJ28 and mAb16D10). Cells were washed with PBS and incubated with 100 μl of MTT (0.5 mg/ml) in complete media for 3 h, washed with PBS and finally incubated with DMSO for 30 min at 37° C. Cell growth was determined by measuring absorbance at 550 nm using a MR 5000 microplate spectrophotometer. All independent determinations were done in triplicate and compared to control."}, "[1]": {"system": "E-cadherin in PANC-1 cells", "assay": "Immunofluorescence of E-cadherin, PANC-1", "type": "cell-based, human", "conditions": "PANC-1 treated or not with mAb16D10"}, "living cells in culture": {"system": "living cells in culture", "assay": "Pulse-chase confocal microscopy internalization", "type": "cell-based", "conditions": "pulse 30 min at 4° C.; chase 2 h at 37° C.", "procedure": "A pulse-chase experiment using confocal microscopy was used to assess the interaction of the IgM 16D10 antibody with living cells in culture. (Pulse: 30 min at 4° C.; Chase: 0 or 2 h at 37° C. in culture medium.) It was observed that virtually all of the mAb was internalized within 2 h. A fraction of the mAbs co-localized with LAMP1."}, "[2]": {"system": "E-cadherin, β-catenin in SOJ-6 cells", "assay": "Immunoblotting and immunofluorescence of E-cadherin/β-catenin complex, SOJ-6", "type": "cell-based, human", "procedure": "SOJ-6 cells were grown in 6-well culture plates in RPMI 1640 medium with 10% FCS. At subconfluency, the medium was removed and replaced for 24 hours by fresh RPMI medium with 10% inactivated FCS. SOJ-6 cells were then incubated with mAb16D10 or Cisplatin for 24 hours. At the end of incubation, cells were washed three times with ice-cold PBS (without […] and Mg^++) harvested and pelleted by centrifugation. Pellets were washed twice and lysed at 4° C. in 0.5 ml of lysis buffer (10 mM Tris-HCl pH 7.4, 150 mM NaCl, 1% Triton X-100, 1 mM benzamidine and phosphatase inhibitors). After lysis, homogenates were clarified by centrifugation at 10,000 g for 10 min at 4° C. An aliquot was saved for protein determination using the bicinchoninic acid assay (Pierce, Rockford, Ill.). Proteins (50 μg/lane) in reducing SDS buffer were separated onto 10, 12, or 15% polyacrylamide with 0.1% SDS (according to the molecular weight range of proteins to be separated). After electrophoretic migration, proteins were silver stained. Alternatively, proteins were transferred onto nitrocellulose membranes using a Mini Transblot electrophoretic cell (BioRad, Hercule, Oreg.), and transferred proteins were immunodetected by using appropriate primary and secondary antibodies. After washes, membranes were developed with a chemoluminescent substrate according to the manufacturer's instructions (Roche Diagnostics, Switzerland). In each experiment, a control was included by omitting primary antibodies or by using a non-immune serum.\nThese molecules might confer to these lipid raft domains the role of signalling. Immunoblottings were performed to examine the expression of E-cadherin and of β-catenin by pancreatic tumoral cells.\nSeveral studies have shown that, in the absence of Wnt signalling, the phosphorylation of residues of β-catenin addressed this protein to degradation by the ubiquitin-dependent proteasome pathway (Aberle et al., 1997 EMBO J. 16(13): 3797-804 and Orford et al., 1997 Biol. Chem. 272(40): 24735-8). […] Furthermore, β-catenin may be regulated by GSK-3β, which itself is activated in cells once treated with mAb16D10 (FIG. 11). […] Lastly, we wanted to determine whether the association of E-cadherin, β-catenin, and 16D10 antigen in the rafts microdomains is required for mAb16D10 to induce apoptosis (FIG. 13)."}}}
{"molecule": "B1", "values": [{"measurement": "% growth of cells", "setting": "SOJ-6 cells", "result": "does cause a decrease in SOJ-6 cells"}, {"measurement": "E-cadherin at the plasma membrane", "setting": "[1]", "result": "did not express E-cadherin at their plasma membrane"}, {"measurement": "fraction of mAb internalized", "setting": "living cells in culture", "result": "virtually all"}, {"measurement": "phosphorylation of β-catenin", "setting": "[2]; SOJ-6", "result": "phosphorylated"}, {"measurement": "expression of β-catenin", "setting": "[2]; SOJ-6, 25 μg/ml, 24 h", "result": "did not induce a significant change in the expression of β-catenin"}, {"measurement": "E-cadherin protein expression", "setting": "[2]; SOJ-6, 25 μg/ml, 24 h, versus irrelevant IgM", "result": "high E-cadherin protein expression"}, {"measurement": "localization of β-catenin", "setting": "[2]; SOJ-6, fluorescence microscopy, plasma membrane in untreated cells", "result": "found in the cytosolic compartment"}]}
